Measurements as given in patent US20230303675A1.

How the values were obtained:
[1] = target: human Ang2 (angiopoietin-2) (human) (UniProt O15123); assay: BLI (Octet), scFv amine-coupled on AR2G biosensor, Ang2 in solution at 50, 40, 30, 20 nM
[2] = target: mouse Ang2 (angiopoietin-2) (mouse) (UniProt O35608); assay: BLI (Octet), scFv amine-coupled on AR2G biosensor, Ang2 in solution
Chain of UniProt O35608 (O35608 19-496 limits assumed): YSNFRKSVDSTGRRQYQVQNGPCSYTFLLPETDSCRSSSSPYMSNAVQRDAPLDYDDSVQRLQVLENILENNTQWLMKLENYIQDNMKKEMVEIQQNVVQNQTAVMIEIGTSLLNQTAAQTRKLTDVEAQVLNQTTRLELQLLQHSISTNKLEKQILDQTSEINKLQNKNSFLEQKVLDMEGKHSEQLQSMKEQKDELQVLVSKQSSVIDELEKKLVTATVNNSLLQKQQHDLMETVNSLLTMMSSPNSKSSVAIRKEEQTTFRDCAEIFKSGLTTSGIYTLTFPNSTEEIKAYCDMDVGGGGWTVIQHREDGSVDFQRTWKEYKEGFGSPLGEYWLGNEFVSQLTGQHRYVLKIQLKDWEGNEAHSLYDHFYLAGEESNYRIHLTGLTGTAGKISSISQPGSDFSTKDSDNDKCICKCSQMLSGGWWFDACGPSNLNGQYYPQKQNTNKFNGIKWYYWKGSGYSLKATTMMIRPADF

Chain of UniProt O15123 (O15123 19-496 limits assumed): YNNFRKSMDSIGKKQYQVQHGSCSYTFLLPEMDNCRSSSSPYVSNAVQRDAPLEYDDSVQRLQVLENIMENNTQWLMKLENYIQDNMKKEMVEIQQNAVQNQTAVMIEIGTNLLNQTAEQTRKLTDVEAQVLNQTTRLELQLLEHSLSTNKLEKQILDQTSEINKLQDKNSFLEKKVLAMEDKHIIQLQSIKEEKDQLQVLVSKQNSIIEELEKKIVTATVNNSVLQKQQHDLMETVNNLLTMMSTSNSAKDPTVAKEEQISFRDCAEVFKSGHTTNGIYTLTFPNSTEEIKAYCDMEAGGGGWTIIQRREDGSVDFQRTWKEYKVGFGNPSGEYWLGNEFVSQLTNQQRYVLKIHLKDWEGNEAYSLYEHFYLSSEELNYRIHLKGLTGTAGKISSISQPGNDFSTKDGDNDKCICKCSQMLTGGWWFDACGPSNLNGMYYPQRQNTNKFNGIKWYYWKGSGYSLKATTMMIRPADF

B1: anti-Ang2 antibody clone O4 ScFv with N76S substitution in the light-chain variable region (scFv, part only; not given: Linker, domain order and His tag, V domains shown, not shown: another chain or arm of the molecule; small tags and cut ends)
VH: QVQLVESGGGLVKPGGSLRLSCAASGFTFSSYSMNWVRQAPGKGLEWVSSISASDGATYYADSVRGRFTISRDNSRSTLYLQMNSLRAEDTAVYYCAKTLAGYSGPMGGMDVWGQGTTVTVSS
VL: DIQMTQSPSSLSASVGDRVTITCRASRDISNYLAWYQQKPGKAPKSLIYGASNLQSGVSSQFSGSGSGTDFTLTISSLQPEDSATYYCQQYYSYPLTFGGGTKVDIK
B1 showed a Kd [1] of 313 pM, a koff [1] of 0.000172 s⁻¹ and a kon [1] of 549000 M⁻¹ s⁻¹. It also gave a Kd [2] of 231 pM, a koff [2] of 0.000169 s⁻¹ and a kon [2] of 733000 M⁻¹ s⁻¹.
